Test results reported in the supplement of paper PMC12636428.

System: Saccharomyces cerevisiae
Experiment: transcriptional activation domain activity (GFP:mCherry ratio, weighted mean of sorted bins, harmonized to initial dataset scale) (arbitrary fluorescence ratio units); higher = stronger transcriptional activation
Settings: beta-estradiol 1 µM; induction time 4 h
Procedure, shortened: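 Protein tiles carrying barcodes and fused to an estradiol-inducible synthetic transcription factor were placed at the URA3 locus of yeast diploids with a GFP reporter. Following 4 hours at 30 °C in SC with 1 uM beta-estradiol, cells were sorted into 8 GFP:mCherry bins, barcodes were sequenced, and tiles with fewer than 50 reads were discarded. Activation activity is given as the read-weighted mean of bin median fluorescence, averaged across barcodes and linearly mapped to the initial dataset scale.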

Row | Sequence | transcriptional activation domain activity
1 | MVLCNSKSLFFPLFLHYLYCVIFLLLWILFHIAFIFFTNFYYYLPSHTLCAFI | 61700
2 | MVLCPSSYSFPLPPFFLFFFLSSPFFFAALFFFFPFLPPNSRVCPSLFPLSLL | 62600
3 | MVLFLFCLITFACSRTWVMAFLLIWVSSFFLFILFFFSFFSYYAFRVLPLCYS | 46300
4 | MVLHMRGHVQNKIKITLFTAFFFFVQIRSLGWILFLGFSFSALFFPIFFIFFI | 55000
5 | MVLIFFLYWLWFMWGLYLFFFSFFSRAKYWLLVLVVFFFGWGFYIVWSFSLHD | 57500
6 | MVLINIPNFLFSLFFFLFSFFSLLPFFTYLTFLSSSSLLLSTFCCSLASSPCM | 50000
7 | MVLISFKSISPITSPILPTYHHHHHSFHHSIHHLLLIYYKLILLFLFFLIFYL | 46800
8 | MVLLCAYERGLGLDIGVSGFVSFFSFLTLFFFFPIYLFFSLLYFLCVCLLCCA | 49700
9 | MVLLCAYERVGLGRSIGFGIFFFLPLFLLLLLTHFSFLFFFFAFTFILMMACL | 57800
10 | MVLLDVGWLCISRFILLDSMLLFFTFLTVFCLTKFHNQQYQSFSVDWWVWLFL | 67700
11 | MVLLGSCTLLIGKTITPYILVHKTGILYPLLFFFFFSLSLSFFYFFIGTFPLG | 52100
12 | MVLLLLLDYNVFCHFNFAVHLYLLPFINKFKRIVLGHLIFLWNYLVQVVVVSP | 67600
13 | MVLLSKIVWVICGVTLVSTDFDHAQRRLRGSLLTSLTLYLLIVMCSRWSLVES | 72400
14 | MVLLSRLIFVAVILSLTGCRSQLESRCMVFGYRRVLVVVVRAISSCAALLRCA | 71100
15 | MVLLSVLCVLICNYFCLLVFTVAMGMPSGPPVRPLFQVILAHRRYLFSFRTHW | 82500
16 | MVLLTFSLICNSCATVLELSEHLPVPWDVFCQHMCVRFLLPLLRVAAHALTSA | 43000
17 | MVLLTTLSKKTTIVTVLCSTVINMGKFGFTRHNHRCMRTGALLCLLLFLAYHF | 42800
18 | MVLPYVLFNNTRQLLKVWYESLKAIVLLYQKIKIIFRYIFMYTLASLLLLFYF | 45300
19 | MVLQNSMIVIFCHSFDIVWSVFLIGHYCILFYRYLIFCYVCVSFNWTFYLYIF | 58700
20 | MVLRYRLSRSFPTLFIHVQLVLQSLRMGQVSLCMVVQIVWEYIYFWLLGNIAW | 65600
21 | MVLSILEIICAVVVLHPSCNYHIFSQCICEFSSWSFAISALLVVVLFWAAVAR | 56000
22 | MVLVIQFYTVFFSFVYYFIFFSSSNLFSILCPPPPPPIIPIFCPLVGAFGFLF | 42000
23 | MVLVLLWTVEPFIFLFNLLLLILLMVWLPLILLFKLLFLNNITFLSFMIPNQL | 45000
24 | MVMMIVCVCVLPCFVYVLWFLCRFFIYLFYYCVHAWPRWHREGGLFSLFFFFF | 30000
25 | MVMVKIPFLLAFVYLFLVLHSHVLVHSFRNFTSLLVFACLLGVGMWRCVWTQM | 58000

Row | Sequence | transcriptional activation domain activity
26 | MVMYHWGMRCVFLYTNYIIFGFGFVFSFLFSFFFFFFPFTCIFFFLFYLIFIF | 58900
27 | MVNCLKVFLVVLLAPIPLAPPIFLLSFLALMVVDHEPCPYCSLLIILLLQSTC | 31200
28 | MVNNYWSYQYSLMPFLFFFFVSQFKSCSYFFFSLLFFSWLFRFLVSYFLSWKT | 71500
29 | MVPFSAFSFSLVKKFHWSAAFGGSFFLHLFFTNLNAWVFLFYLLLYVFVYQGL | 40600
30 | MVPFSYVWEFYFFLMSMGGLGFHIFGLGHIFLFTSHIISFFIIGYWCCLICTK | 57200
31 | MVPLRSFPILYALCKVLLFITILLLLIVFVCLGLQHCLLFVGCWLCVQIWCGG | 23300
32 | MVPPRRESAATGASQRAAIACQSCRLRKVKCDAESAASDQGCTPCRRARQECV | 26600
33 | MVQAVIRLILDYCRYLVVSFYQFCLCCYSPLMCVPGHGIMLITSLFLKLIHVI | 58200
34 | MVQCASTECSNEGVSQCGRCKQRFYCGAECQQKDWPAHKKNCKRPNAPPPQMS | 17500
35 | MVQCAVAECAEEGQSQCGRCKQRFYCSAECQQKDWAAHKKACKKPTATAGPAP | 39500
36 | MVQCAVAECTEEGKSQCGRCKQRFYCSADCQQKDWKVHKKNCKSPAATSAQLS | 23100
37 | MVQNWEFFVFFFLPFNSFFSFFLPFCEVYMCAVCGLWCGSPGKLLGLFYFWFV | 36600
38 | MVQNWEFFVFFFRFVKFTCVQCGLWCGSPGKLLGLFLFLVCCVLFFFFFFLVE | < 6570
39 | MVQNWEFFVFFFSFFIFSFCEVYMCAVCGLWCGSPGKLLGLLFLVLLCSLFFF | 40300
40 | MVQYIMSSKLLLSCINLLRSSILCTMLYLSFFGNFLLCHMIFGLWFYFMMHHE | 53300
41 | MVRGLFLCFLFSCPWRLLSCCLFLQIFLFSLHLFALKIYVSFFLVHFHACFWA | 60900
42 | MVRRLINLFLCRPCLLTFLCYLWVFNIFSSASDLYFLFLLSLFGFVFVMGWGS | 38900
43 | MVRSGILKCELLQNLSTVYPTIYLVLCCYSIVFFFNACLSFLVLFMHFAFLVK | 52800
44 | MVSCYIPLLIGFLGLVGPVLSRFFFLFSLFSWLIGRLVLYLILFLSSLCHGLG | 30300
45 | MVSFFFSLCFSSFSYLLFPHFLSFFLFFSLCCHFFPFVSTFPPILFFIMNVSF | 67100
46 | MVSFYYICSCAGSCWMLNARLHLWGLIFTVIFGDTVHVICLLFWFYFYRPPPF | 41200
47 | MVSILLFFLSSAFLLTYPYPLLNLALYLLLMFIFSTLYSLTYLLLGFFFFFLA | 58600
48 | MVSMQLSKLFIFSRVRRGGFFFCPCFSLVFLLFLFCIFFFHHFFSFHISFYLP | 41400
49 | MVSTRRQERDKEKKEKRKEEKEKEKGEGKTEKKKKKKSGDKKSKKGEGRTKEG | 21200
50 | MVSYLIGALDIHMYGIWFWPFWLFESWASWIGLRDVFYLFIFFPLFFSLYSTL | 49600

Row | Sequence | transcriptional activation domain activity
51 | MVTISTDWFGWFVYLRFSGHLGVNCFYFIIRFFLFWVAFQLHVCIFSLPLVSC | 51400
52 | MVTIWDFFLGGWGWAFYIICLFFFLSFYFLSFFFFSLLSSFFFFGYSPSAVWV | 29600
53 | MVTVGILHYLLIGNLLTNVLFGVYVQMAWKCSCIFYRKYQMGQVHSYHLFSFI | 80900
54 | MVVFGCRCNVMLYILFCNLRFLLRGAVCIQILTMFILWCAMTEIVLSVLPILS | 47300
55 | MVVFLFSFRVWVLLWICKISFINFVPMSTCRGLMVVRLRLNQTWGIRSLVPWL | 29600
56 | MVVFLYLVIYHWSKVNRVSFRCAAFCCIAHLIENVFFVIMVKVKGPSKFCAGI | 76900
57 | MVVILYFFFYIFIKNRLGLVRVIFLFLVYHIQLLVLFFFGPFLPLVLLLLLLL | 35900
58 | MVVIVLQIGVSLYKLLVLLLWYVEWILYLFLLVEDRLLYQNMLLFEAPTLVYT | 63300
59 | MVVIWGLDLKEMQWWKFKGSYMFNQTYHLRRTKMIVYQIAMIFMVCSESVGTA | 31600
60 | MVVLCPYNVLQKRERDAFLLALRRCLFAPINHPVYFSDVVFADIFTSYAKVLG | 44000
61 | MVVLTICQLHHWNAGWDFHLLFWVCLFYSVKKLYDLILWLNFILTSKDLVKSN | 40600
62 | MVVSLLIIRCHSTASSNRWLLLGYGLHFLIRFFYLITMLLITRLNFVLSFFAA | 81000
63 | MVVVSCLSGAFLFFLFVHVVSGALFTYYSLLSLIFSLYHSILFVCWADLFFFF | 57100
64 | MVWFWFWLRYLFFFFFLFSKNTLIGLFLLLLLLLHLFLRSLPILLVCASRVFF | 53300
65 | MVWGCAFFISSQFLFPWLLWVFPLSLLSLGLSHTLELDSVFSLLLIFFTIPLF | 34500
66 | MVWIRSKSPIKWLYIWLYYVRRPRINVASYTTKWVTIESELVFLAENFLDDKC | 33300
67 | MVYCISFCLALFESLLYSIVADTNILIHYFLFFLLLFCQFVYFLNNTFFIFLS | 51800
68 | MVYMSSVNVWGLDIYYSRVSIYLFFFPSLFFLWAASMSLFPYYFLPSLFYIVL | 26500
69 | MVYQGGVTFLCNFYILFPFFPFFFCFCKVSFLFCFCIFLFFCSWDGGLFLFLF | 62700
70 | MWCTRWFLPLLLLPLPTAPPFFLALFLISLTLHSKPCFYCILLLTTLFLTSCY | 45300
71 | MWCTRWFLPLLLLPLPTAPPYFLLLFLFSLTMHAKPCFYCIVLLTTLFVSSCY | 47800
72 | MWCTRWVLPFLLLPAPTSPPYFVLIFLLSLVMHARPCIYCIFFLIMLFITSNY | 47000
73 | MWCTRWYIPLLLLPIPTAPPYFLILFLFSLTLHARPCFYCILLLLTLFLSSCY | 58500
74 | MWEVLWAFSFLAGDIFVFFLSLALYIYPNHLVSPLLPGCVKPPVGMYWFLVFQ | 44000
